Test results from paper PMC3820547, “An Extended Network of Genomic Maintenance in the Archaeon Pyrococcus abyssi Highlights Unexpected Associations between Eucaryotic Homologs” (PLoS ONE, 2013).

Target: T1, Mre11/Rad50 complex (Q9UZC9, Q9UZC8), HIS fusion (Pyrococcus abyssi, UniProt Q9UZC9 1-415; Q9UZC8 1-880)
T1 construct: Mre11 of Pyrococcus abyssi, full length, in the FL complex; Rad50 of Pyrococcus abyssi, full length, in the FL complex; also called Mre11 complex; source: E. coli Rosetta, purified on magnetic beads (details in Materials S1); not shown: His tag, N-terminal, kept
Experiment: pull-down; 10 ug HIS fusion Mre11/Rad50 immobilised on Co2+ magnetic beads, with or without DNase I treatment, incubated with 0.5 ug PCNA 1 h at room temperature in TrisHCl 20 mM pH 8, NaCl 150 mM, DTT 1 mM with BSA; Western blot with anti-PCNA and anti-HisTag
Details: both partners purified

T1 sequence (Q9UZC9 whole entry, chain 1 of 2, the tested form may be a part): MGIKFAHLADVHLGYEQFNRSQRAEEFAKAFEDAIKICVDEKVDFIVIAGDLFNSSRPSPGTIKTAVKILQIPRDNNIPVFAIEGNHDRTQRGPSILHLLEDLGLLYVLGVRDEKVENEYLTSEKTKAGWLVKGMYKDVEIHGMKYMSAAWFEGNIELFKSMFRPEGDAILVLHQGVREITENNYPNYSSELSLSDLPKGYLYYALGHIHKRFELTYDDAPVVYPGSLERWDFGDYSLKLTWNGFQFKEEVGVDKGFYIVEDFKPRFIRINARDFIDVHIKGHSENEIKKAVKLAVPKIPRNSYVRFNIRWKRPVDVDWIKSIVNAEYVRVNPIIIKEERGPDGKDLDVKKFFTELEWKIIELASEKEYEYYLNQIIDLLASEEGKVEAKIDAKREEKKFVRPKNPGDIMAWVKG
T1 sequence (Q9UZC8 whole entry, chain 2 of 2, the tested form may be a part): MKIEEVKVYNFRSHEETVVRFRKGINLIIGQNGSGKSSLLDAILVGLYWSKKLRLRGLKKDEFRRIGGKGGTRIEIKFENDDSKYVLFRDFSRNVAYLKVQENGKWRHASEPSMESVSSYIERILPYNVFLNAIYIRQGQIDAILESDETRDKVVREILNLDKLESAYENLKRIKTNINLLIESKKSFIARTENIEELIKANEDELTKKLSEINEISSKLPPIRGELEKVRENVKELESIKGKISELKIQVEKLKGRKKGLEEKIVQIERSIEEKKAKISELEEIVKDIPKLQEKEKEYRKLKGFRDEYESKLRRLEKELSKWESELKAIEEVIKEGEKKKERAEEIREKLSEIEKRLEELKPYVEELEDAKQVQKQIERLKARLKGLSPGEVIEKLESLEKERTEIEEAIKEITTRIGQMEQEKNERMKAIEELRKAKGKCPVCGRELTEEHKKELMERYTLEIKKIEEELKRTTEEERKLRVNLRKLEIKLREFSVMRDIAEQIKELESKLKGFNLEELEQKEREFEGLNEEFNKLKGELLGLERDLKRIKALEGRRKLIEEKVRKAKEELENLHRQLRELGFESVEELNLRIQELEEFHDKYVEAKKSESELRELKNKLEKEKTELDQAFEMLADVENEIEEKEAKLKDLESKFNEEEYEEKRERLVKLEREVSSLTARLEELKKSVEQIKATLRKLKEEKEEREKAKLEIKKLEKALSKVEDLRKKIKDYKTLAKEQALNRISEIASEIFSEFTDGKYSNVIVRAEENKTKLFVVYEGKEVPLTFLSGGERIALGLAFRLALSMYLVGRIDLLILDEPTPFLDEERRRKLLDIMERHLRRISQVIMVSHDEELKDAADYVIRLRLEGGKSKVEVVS

B1: purified PCNA (prey of the Mre11/Rad50 pull-down) (natural protein, Pyrococcus abyssi, UniProt Q9UYX8 1-249, looked up)
chain: MPFEIVFEGAKEFAQLIETASRLIDEAAFKVTEEGISMRAMDPSRVVLIDLNLPASIFSKYEVDGEETIGVNMDHLKKVLKRGKAKETLILRKGEENFLEISLQGTATRTFKLPLIDVEEIEVDLPELPFTAKVVILGDVIKEAVKDASLVSDSMKFIAKENEFTMRAEGETQEVEVKLTLEDEGLLDIEVQEETKSAYGISYLSDMVKGLGKADEVTIKFGNEMPMQMEYYIRDEGRLIFLLAPRVEE
notes: it was the prey on Co2+ beads and was detected with anti-PCNA, so it is kept apart from m1; source: purified
binding result: binds
